Changes are numbered by the printed parent chain.
B1: 1H10 anti-CDH17 recombinant antibody (human IgG1) (antibody, V domains shown)
VH: QVQLVESGGGVVQPGRSLRLSCVASGFTFSSYGMHWVRQAPGKGLEWVTFIWYDGSNKNYADSVKGRFTISRDNSKNTLNLQMNSLRVEDTAVYYCARDRYSSGWDVFDYWGQGTLVTVSS
VL: DIQMTQSPSSVSASVGDRVTITCRASQDISSWLAWYQQQPGKAPKLQIYAASSLQSGVPSRFSGSGSGTDFTLTISSLQPEDFATYYCQQAKSFPPTFGQGTKVEIKR
B2: 17F3 anti-CDH17 recombinant antibody (human IgG1) (antibody, V domains shown)
VH: EVQLVESGGGLVKSGGSLRLSCAASGFTFSSYSLKWVRQAPGKGLEWVSSISSSSGYIYYADSVKGRFTISRDNAKNSLYLQMNSLRAEDTAMYYCARAVSTIAARPGYYYYYMDVWGKGTLVTVSS
VL: DIQMTQSPSSVSASIGDRVTITCRASQDISTWFAWYQQKPGKAPKLLIYAASTLRSGVPSRFSGSGSGTDFTLTINSLQPEDFATYYCQQANSFPLTFGGGTKVEIKR
B3: 2F9 anti-CDH17 recombinant antibody (human IgG1) (antibody, V domains shown)
VH: EVQLVESGGGVVRPGGSLRLSCAASGFTFDDYGMSWVRQAPGKGLEWVSGLSWNGGNTYYADSVKGRFTISRDNAKNSLYLQMNSLRAEDTALYYCARGSRYNWNYDAFDIWGQGTLVTVSS
VL: DIQMTQSPSSLSASIGDRVTITCRASQGIRNALGWYQQKPGKAPKRLIYAASNLQSGVPSRFSGSGSGTEFTLTISSLQPEDFATYYCLQHNSYPFTFGPGTKVEIKR
B4: 9E2 anti-CDH17 recombinant antibody (human IgG1) (antibody, V domains shown)
VH: B3 VH with D31N, L51I, S52N, N57S, K65R, N105S
VL: B3 VL with I15V, I29V, N53S
B5: 13C7 anti-CDH17 recombinant antibody (human IgG1) (antibody, V domains shown)
VH: QITLKESGPTLVKPTQTLTLTCTFSGFSLSTSGVGVGWIRQPPGKALEWLALIYWNDDKRYRPSLKNRLTITKDTSKNQVVLTMTNMDPVDTATYYCTHYGVTAPFYNWFDPWGQGTLVTVSS
VL: DIQMTQSPSSLSASVGDRVTITCRASQSITSYLNWYQQKPGKAPKLLIYAASSLQSGVPSRFSGSGSGTDFTLTISSLQPEDFATYYCQRSYSTLTFGGGTKVEIKR
B6: 19C7 anti-CDH17 recombinant antibody (human IgG1) (antibody, V domains shown)
VH: B5 VH with F27I, S32G, A51S, R62S, N67S, T75S, T98A, Y100S, V102L, T103A
VL: B5 VL with T30S, S31N, Q38L, K42N, Y49F, Y87F

The binders below were run against T1, human CDH17 as originally expressed in cells (cell surface CDH17 on AsPC1, GP2d and other cancer cell lines) (human, UniProt Q12864 23-832) (assay: flow cytometry titration on CDH17 positive AsPC1 cells).
T1 construct: whole, on cells; Endogenous CDH17 on human cancer cell lines; AsPC1 and GP2d are named CDH17 positive; also called CDH17 positive AsPC1 cells; GP2d cells
Procedure: To determine the binding of recombinant antibody to cell surface CDH17 receptors, cells were first harvested and resuspended in cell staining buffer (BioLegend, Cat #420201) at 1.3-1.5×10⁶ cells/mL. Then, the cells were treated with human Fc receptor blocking reagent (BioLegend, Cat #422302) on the ice for 10 min. The resulting cell suspension was aliquoted into 50 μL aliquots. […] The cells were incubated on the ice for 1 hour and then washed with cell staining buffer twice. 50 μL of secondary antibody (PE conjugated goat anti-human Fc, eBioscience™, 1:250 dilution) was added to each sample to resuspend the cells. The cells were incubated on the ice for another 20 min. Cells were subsequently washed twice with cell staining buffer and resuspended in 4% PFA to fix the cells. The samples were analyzed using iQue3 to measure the median fluorescence intensity using corresponding channels.

| Kd | Binder |
| --- | --- |
| 0.31 nM | B1 |
| 0.74 nM | B2 |
| 0.17 nM | B3 |
| 0.31 nM | B4 |
| 0.28 nM | B5 |
| 0.13 nM | B6 |

What follows are binders tested against T1, human CDH17 as originally expressed in … (assay: cell-based or functional assay).

| Binder | IC50 of indirect killing assay to evaluate the internalization in AsPC1 cells |
| --- | --- |
| B1 | 0.19 nM |
| B2 | 0.08 nM |
| B3 | 0.14 nM |
| B4 | 0.15 nM |
| B5 | 0.09 nM |
| B6 | 0.09 nM |

— patent US20260232828A1, “LIGAND-CYTOTOXICITY DRUG CONJUGATES AND PHARMACEUTICAL USES THEREOF” (HANSOH BIO LLC, priority 2023, published 2026)
